Reference: PMC8531726

tested on: T1, Zur (Pseudomonas aeruginosa), ORF:f39b2fc0; assay: EMSA; details: EMSA: 30 ng DNA, 500 nM Zur, 5X Zn-less binding buffer (50 mM Tris, 200 mM KCl, 50 mM MgCl2, 5 mM DTT, 25% glycerol; 5X [sic], pH not given), 5 uM ZnCl2 …
T1 sequence: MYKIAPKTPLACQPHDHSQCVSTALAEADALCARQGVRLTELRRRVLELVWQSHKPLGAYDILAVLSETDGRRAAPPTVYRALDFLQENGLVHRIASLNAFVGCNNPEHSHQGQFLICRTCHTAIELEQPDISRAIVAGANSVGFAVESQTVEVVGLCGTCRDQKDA

binding, binds:
ACTTTCCCGTTCCTCTTCGCCGGCAGGCATGCGGACATTGCCGCTGCACGTCGGCACGACGCCATGCAGAGTGGCTACGCGGGTCTACCGACACAAAAAGAAATAATATAACATCCCAATAAATACGCCGATCCGACCCCGTCGCCCTTCCTCCGGGAAGGGCCTGGGTTCGCTTTGGCCTGAAAAAAGTCCGACCCA (double strand) [pznuD]
AGAAGTCCTGCTGGGCTTCGTCCATGTAGGCAGCGTCGGGCTGGGCAAGCAGTTCCTGTTCGGTCATGGGCTGAACCTGGGAAATTTAAAACGTTATACTATAACAATTAACACCACAATCGATGGCCCGCCAATCGCCTTCCGGCTACCCTGGGCCCACGTCATCCCGGGATCCACCGATGCGCCGCGTCCTCCGCCTTTACT (double strand) [pdksA2]
ATGGGCCTGGGCGGCGAACGGCAGCAAGACGAGGGCTAACAGCAGTGGGCGCATGAACGGGACTCCGGCAAGGAAGGAAAAGAGTTTGTTACGTTATAACGAATTTTTCCGCCTGCCTAGCCTGGCCGATTTGGCCCCTACGCGCCGACGTGGGAGCATGGCGCGATTCGCTTGTGGAGAAAC (double strand) [pPA4063]
CATAGCAGGCCGGCGTGAAGAAAATGTGATGACCCGGGAAGCTGCGCCAGGGCGTGGGGTCCGGCGAAGAAAGACTGCACAAGCGAATTGTTATAGTATAACATTTTATTCAATCCAGATCGTTCAAGGCTTGACTGGAAACGGTGCGGATGTTCCCATCCGGCCCGTTCCAGGTGCCTCCTGCCGCCGCGCAGGAGGTGAAACGGGAAGCCGGTGCGTCACTTCGGTGA (double strand) [pPA2911]
CTCTGCCAGACCAGTTCCAGCACGCGCCGCCGCAGTTCGGTCAGGCGCACGCCCTGGCGCGCGCACAGCGCATCGGCCTCGGCCAGCGCGGTGCTGACGCACTGGCTGTGGTCATGGGGCTGGCAGGCCAGCGGGGTCTTGGGCGCAATCTTGTACATGGGCTGCGACGCTCGAGGGTAGAGACGTTATTATATTACCCGCTAACCACCTTTCA (double strand) [pznuA]
GAGCGCCATGATCTGCTCGGTTGCGGTCATCTTTCCTCCTGGGGGGCATGCCCGGTTGAGAGTGGGGTCCTGTGCTTCGAGGGATACGGCGAGCGAGACGTTCCCTCGCCTCGATGAAGAAGAAACGGCGGGCATTCTTCATTCGAAGAAATGTTATGTTATAACTTATAAGTATTTATAATTCATACCTGCCGACCATGACCCCCCATTCCTCCCCGCACCGTCTTCCTCCGCTGCGGCTGGCCCGCGCCGTGCCGTTCCTCTACCTGCTTC (double strand) [pPA1922]
GGCTGGGCTGGTCGTCGGAAAAGAGGGATGAGTATCACAGCCTGGCGGCGAGAAGCGAGATAGAGCCGGGCATTGTATTGCGAGGCCGGAATCGAACTGGTAGCGTTATAGTATATCATTTCTTTTCTGGTGCGATTTCCCATGAGAGTCAGTGTGTCGCTTGTCCTCGGTGTCGGCCTCGGTTGCAGCAGTCCGGCGCTCTGGGCGGAAACGGAAAGTCCCGCGG (double strand) [pzrmA]
GTGCTGCACACAGACTCTCGTCTTCCAGTCAAGAGCCTTGGGATGCAGACTGTTTTTCAAATCATGACAACTTCTTAACGCGCATTGTTATAAAGTTGCGGGCGTTTGCGCCGGCCTGGCCGGTACCTTCGAGTTTTGCCTGGAGTGAAGATGAGAGTCGACCTGGAC (double strand) [pPA2439]
TCGAGCAGCCGAATGGTCGCCGGGAACTCTTTCCGGAGTTGCGAATTATTCTTATCGGAGTAATATGTAACTATATAACATTATGTAGGAGGCATCCCCATGAAACCCGGCATCCATCCCGAATACCGTCCCGTCCTGTTCCATGACACCTCGGCCGACGTGTACTTCCTGATCGGCTCCACC (double strand) [prpmE2]
